Measured values from publication PMC6277545, “Structural Basis for the Limited Response to Oxidative and Thiol-Conjugating Agents by Triosephosphate Isomerase From the Photosynthetic Bacteria Synechocystis” (Frontiers in Molecular Biosciences, 2018).

Substrate: O=CC(O)COP(=O)(O)O
Test: coupled alpha-glycerophosphate dehydrogenase assay, A340
Format: biochemical, Synechocystis sp. PCC 6803
Conditions: 0.1 M TEA pH 7.4, 10 mM EDTA, 0.2 mM NADH, G3P 0-5 mM, G3P to DHAP
Source text: coupled alpha-glycerophosphate dehydrogenase assay, A340 on SyTPI

B1: SyTPI (Synechocystis sp. PCC 6803 substr. Kazusa; C127A/C176S/C42A) (protein)
chain: MRKIIIAGNWKMHKTQAEAQAFLQGFKPLIEDAAESREVVLAVPFTDLSGMSQQLHGGRVRLGAQNVHWEASGAYTGEISAAMLTEIGIHYVVIGHSERRQYFGETDETANLRVLAAQKAGLIPILAVGESKAQRDAGETEQVIVDQVKKGLVNVDQSNLVIAYEPIWAIGTGDTSAATEANRVIGLIREQLTNSQVTIQYGGSVNANNVDEIMAQPEIDGALVGGASLEPQSFARIVNFQP
notes: full length, codon-optimised, E. coli BL21(DE3) delta-tpi; His tag cut by PreScission, extra Gly-Pro-His before Met1; homodimer 54 kDa
Km: 1.40 ± 0.15 mM | kcat: 21.3 ± 1 s⁻¹ | kcat/Km: 15200 M⁻¹ s⁻¹

B2: SyTPI (Synechocystis sp. PCC 6803 substr. Kazusa; C127A/C176S) (protein)
chain: MRKIIIAGNWKMHKTQAEAQAFLQGFKPLIEDAAESREVVLCVPFTDLSGMSQQLHGGRVRLGAQNVHWEASGAYTGEISAAMLTEIGIHYVVIGHSERRQYFGETDETANLRVLAAQKAGLIPILAVGESKAQRDAGETEQVIVDQVKKGLVNVDQSNLVIAYEPIWAIGTGDTSAATEANRVIGLIREQLTNSQVTIQYGGSVNANNVDEIMAQPEIDGALVGGASLEPQSFARIVNFQP
notes: as for B1
Km: 1.19 ± 0.08 mM | kcat: 683 ± 6 s⁻¹ | kcat/Km: 573000 M⁻¹ s⁻¹

B3: SyTPI (Synechocystis sp. PCC 6803 substr. Kazusa; C127A) (protein)
chain: MRKIIIAGNWKMHKTQAEAQAFLQGFKPLIEDAAESREVVLCVPFTDLSGMSQQLHGGRVRLGAQNVHWEASGAYTGEISAAMLTEIGIHYVVIGHSERRQYFGETDETANLRVLAAQKAGLIPILAVGESKAQRDAGETEQVIVDQVKKGLVNVDQSNLVIAYEPIWAIGTGDTCAATEANRVIGLIREQLTNSQVTIQYGGSVNANNVDEIMAQPEIDGALVGGASLEPQSFARIVNFQP
notes: as for B1
Km: 1.04 ± 0.08 mM | kcat: 1770 ± 56 s⁻¹ | kcat/Km: 1.71e+06 M⁻¹ s⁻¹

B4: SyTPI (Synechocystis sp. PCC 6803 substr. Kazusa) (protein)
chain: MRKIIIAGNWKMHKTQAEAQAFLQGFKPLIEDAAESREVVLCVPFTDLSGMSQQLHGGRVRLGAQNVHWEASGAYTGEISAAMLTEIGIHYVVIGHSERRQYFGETDETANLRVLAAQKAGLIPILCVGESKAQRDAGETEQVIVDQVKKGLVNVDQSNLVIAYEPIWAIGTGDTCAATEANRVIGLIREQLTNSQVTIQYGGSVNANNVDEIMAQPEIDGALVGGASLEPQSFARIVNFQP
notes: as for B1
Km: 0.80 ± 0.02 mM | kcat: 1850 ± 43 s⁻¹ | kcat/Km: 2.31e+06 M⁻¹ s⁻¹

B5: SyTPI (Synechocystis sp. PCC 6803 substr. Kazusa; C127A/C42A) (protein)
chain: MRKIIIAGNWKMHKTQAEAQAFLQGFKPLIEDAAESREVVLAVPFTDLSGMSQQLHGGRVRLGAQNVHWEASGAYTGEISAAMLTEIGIHYVVIGHSERRQYFGETDETANLRVLAAQKAGLIPILAVGESKAQRDAGETEQVIVDQVKKGLVNVDQSNLVIAYEPIWAIGTGDTCAATEANRVIGLIREQLTNSQVTIQYGGSVNANNVDEIMAQPEIDGALVGGASLEPQSFARIVNFQP
notes: as for B1
Km: 1.10 ± 0.03 mM | kcat: 1630 ± 53 s⁻¹ | kcat/Km: 1.48e+06 M⁻¹ s⁻¹

B6: SyTPI (Synechocystis sp. PCC 6803 substr. Kazusa; C42A) (protein)
chain: MRKIIIAGNWKMHKTQAEAQAFLQGFKPLIEDAAESREVVLAVPFTDLSGMSQQLHGGRVRLGAQNVHWEASGAYTGEISAAMLTEIGIHYVVIGHSERRQYFGETDETANLRVLAAQKAGLIPILCVGESKAQRDAGETEQVIVDQVKKGLVNVDQSNLVIAYEPIWAIGTGDTCAATEANRVIGLIREQLTNSQVTIQYGGSVNANNVDEIMAQPEIDGALVGGASLEPQSFARIVNFQP
notes: as for B1
Km: 1.01 ± 0.03 mM | kcat: 1780 ± 42 s⁻¹ | kcat/Km: 1.76e+06 M⁻¹ s⁻¹

B7: SyTPI (Synechocystis sp. PCC 6803 substr. Kazusa; C176S/C42A) (protein)
chain: MRKIIIAGNWKMHKTQAEAQAFLQGFKPLIEDAAESREVVLAVPFTDLSGMSQQLHGGRVRLGAQNVHWEASGAYTGEISAAMLTEIGIHYVVIGHSERRQYFGETDETANLRVLAAQKAGLIPILCVGESKAQRDAGETEQVIVDQVKKGLVNVDQSNLVIAYEPIWAIGTGDTSAATEANRVIGLIREQLTNSQVTIQYGGSVNANNVDEIMAQPEIDGALVGGASLEPQSFARIVNFQP
notes: as for B1
Km: 1.46 ± 0.02 mM | kcat: 2130 ± 62 s⁻¹ | kcat/Km: 1.46e+06 M⁻¹ s⁻¹
